IntAct's records for PubMed 26483485

B1: Cell adhesion molecule CEACAM8 (Homo sapiens), P31997 (parent)
chain: MGPISAPSCRWRIPWQGLLLTASLFTFWNPPTTAQLTIEAVPSNAAEGKEVLLLVHNLPQDPRGYNWYKGETVDANRRIIGYVISNQQITPGPAYSNRETIYPNASLLMRNVTRNDTGSYTLQVIKLNLMSEEVTGQFSVHPETPKPSISSNNSNPVEDKDAVAFTCEPETQNTTYLWWVNGQSLPVSPRLQLSNGNRTLTLLSVTRNDVGPYECEIQNPASANFSDPVTLNVLYGPDAPTISPSDTYYHAGVNLNLSCHAASNPPSQYSWSVNGTFQQYTQKLFIPNITTKNSGSYACHTTNSATGRNRTTVRMITVSDALVQGSSPGLSARATVSIMIGVLARVALI
B2: Cell adhesion molecule CEACAM6 (Homo sapiens), P40199 (parent)
chain: MGPPSAPPCRLHVPWKEVLLTASLLTFWNPPTTAKLTIESTPFNVAEGKEVLLLAHNLPQNRIGYSWYKGERVDGNSLIVGYVIGTQQATPGPAYSGRETIYPNASLLIQNVTQNDTGFYTLQVIKSDLVNEEATGQFHVYPELPKPSISSNNSNPVEDKDAVAFTCEPEVQNTTYLWWVNGQSLPVSPRLQLSNGNMTLTLLSVKRNDAGSYECEIQNPASANRSDPVTLNVLYGPDVPTISPSKANYRPGENLNLSCHAASNPPAQYSWFINGTFQQSTQELFIPNITVNNSGSYMCQAHNSATGLNRTTVTMITVSGSAPVLSAVATVGITIGVLARVALI

Variants of: B1
Conditions: with ceam6_human CEACAM6, P40199

Variant | effect of a mutation on the interaction
R77A | disrupting interaction strength
L129A | disrupting interaction strength
Q123A | with no effect

Variants of: B2
Conditions: with ceam8_human CEACAM8, P31997

Variant | effect of a mutation on the interaction
L78A | with no effect
L129A | disrupting interaction strength
Q123A | with no effect
I63A | disrupting interaction strength
